Assay results published in the DeepSol protein solubility set.

Assay: soluble on expression in E. coli; label from the status in PepcDB or PDB records

| Sequence | soluble on expression in E. coli |
| --- | --- |
| MTEQTSPESLTDGAHSKTDSAWPLACNLEPRLVSRGRWQTTQWMLHGFSLTPEAQSQYVATLHLYRDERTDYRFNLSSQAPKLFLVAEDPIEDQPLKVVQLTASQAVASRYMDSDYLVLSADMPLPVQALMEAYIGRHGELLEIRRKKREGAGRSCGN | not soluble |
| MTETKDKQLSRIVLKGFKSIAKCDLEISRVNILIGANGAGKSNFIGFFRMVGQLVEENLQVFVSRQGSPDALLHFGRKTTEHLEFQLYFGNNGYFATLEPTQDNRLMFARESFWWNMSGEHEIGRGHFETKVLTSTRTGIDEYVLSAMQQWRVYHFHDTSESAYIKQPHGINDNAYLRPDARNLASFLYLLRNSYPASYQRIVKTIRLVAPFFGDFYLRPAPQNKEVIELEWFERGQDIPFKAYLLSDGTLRFMCLATVFLQPEDLQPETILVDEPELGLHPYAITVLASLMRTASKQVIVSTQSIELLNQFEAKDVIVVDRSEGSSYLRRLNQGDRIHFTGYSLLEHHHHHH | soluble |
| MTEVAKGVATHQRLVALLTQENARYRVVNHEAVGKCEAVSEIRGTALGQGAKALVCKVKGNGVNQHVLAILAADQQADLSQLASHLGGLRASLASPAEVDMLTGCVFGAIPPFSFHPNLKLVADPLLFERFDEIAFNAGLLEKSVIMNTQDYLRIARPELAVFRRFQSSPTA | not soluble |
| MTFQKHVAHTQPAKLATTPSPPGTATTPSLMSEDDDHRTITESQEKRRSWLERLSAAFSGDPHTLDDLMVILRSAEHHGIIATDTLRMMEGAIAIADLTVGDVMVPRSQMVSLPVESDLQTITKQMVESGHSRFPVHGENKDEVLGILLAKDLLRGVSANHTITNVHELLRPVGMIPESKKLNVLLKEFRLSHNHMAIVVDEYGGVAGLVTIEDILEQIVGDIDDEHDETEDQTNMIAIQADGCYIVDALTPIEDFNERFNAEFPDDDYDTIGGLVTEAIGHLPETGDELTIGRFAFRVAKANARRIHILHVTVLPPNEQNTA | not soluble |
| MTFRGPSPPRFGHSMDLPAYAIEAEGLYKTYAGTKTSPEKRALNGIDLKIPRGSIFGLLGPNGAGKSTFINILAGLVRKSSGTVRIWGRDIDQRPRDARAAIGVVPQELAADVFFTPRESLEVQAGFYGVPKSERRTDELLNALGLGDKAGAYVRQLSGGMKRRLMVAKAMVHQPPVLILDEPTAGVDVELRRQLWQYVTSLNELGVTIVLTTHYLEEAQELCDEIAIINRGEVVACEPTAKLLSRMDSRNVVVTPESPVTAAPVLEGFDTKLRSGGAFSVSYRTGQSSVEQVLAAVRASGLHIKDIATEDPDLEDVFVALTYGDPNAADPTKDLEHHHHHH | not soluble |
| MTGMSERERQVMKKLKEVVDKQRDEIRAKDRELGLKNEDVEALQQQQTRLMKINHDLRHRVTVVEAQGKALIEQKVELEADLQTKEQEMGSLRAELGKLRERLQGEHSQNGEEEPETEPVGEESISDAEKVAMDLKDPNRPRFTLQELRDVLHERNELKSKVFLLQEELAYYKSEEMEEENRIPQPPPIAHPRTSPQPESGIKRLFSFFSRDKKRLANTQRNVHIQESFGQWANTHRDDGYTEQGQEALQHL | not soluble |
| MTGNAKLIDRVSAINWNRLQDEKDAEVWDRLTGNFWLPEKVPVSNDIPSWGTLTAGEKQLTMRVFTGLTMLDTIQGTVGAVSLIPDALTPHEEAVLTNIAFMESVHAKSYSQIFSTLCSTAEIDDAFRWSEENRNLQRKAEIVLQSYRGDEPLKRKVASTLLESFLFYSGFYLPMYWSSRAKLTNTADMIRLIIRDEAVHGYYIGYKFQRGLALVDDVTRAELKDYTYELLFELYDNEVEYTQDLYDEVGLTEDVKKFLRYNANKALMNLGYEALFPRDETDVNPAILSALSPNAD | soluble |
| MTGPTTDADAAVPRRVLIAEDEALIRMDLAEMLREEGYEIVGEAGDGQEAVELAELHKPDLVIMDVKMPRRDGIDAASEIASKRIAPIVVLTAFSQRDLVERARDAGAMAYLVKPFSISDLIPAIELAVSRFREITALEGEVATLSERLETRKLVERAKGLLQTKHGMTEPDAFKWIQRAAMDRRTTMKRVAEVVLETLGTPKDT | soluble |
| MTGYGSLFERLNGDADKRVGWSREVSAMASVAAHLGKMLSTRAGSVQTLSDYGLPDLNDMRLSLHDSLSQARSAIEGFIEAYEPRLSDVRVVSLPRDNDQLRLAFSIEGLLEVEGFKRQVSFSACLDGSGQVKVS | not soluble |
| MTGYPDVAAFDLDYTIWPCYCDTHLHGPFKPVKSSNGEVLTIICRDGYELTIYKDIPRILGDLKDNGVKLMTASRTWAPEIAQEILKIFKVKYAGVVTPLANLFDEFQWGERSKIGHLRDGLKDLYNTSDLKSKKICLFDDESRNKEVEKYGVKFVYVRDPENGPSWKLYQDYLSGKV | not soluble |
| MTHIIIDGDACPVVDSIIDLTTETGIFVTIIRSFSHFSNQLYPPHVSTLYVDDGPDAVDYKIVQLSTKDDIVVTQDYGLASLLVDKVLIVMHHNGKIYNSKNIQQLLDKRYINAQIRKQGGRHKGPPPFTKQDQKVFEQSLLKVIHRIKELDLEHHHHHH | soluble |
| MTHQTHTIAESNNFIVLDKYIKAEPTGDSYQSESDLERELIQDLRNQGYEFISVKSQSAMLANVREQLQNLNGVVFNDSEWRRFTEQYLDNPSDGILDKTRKIHIDYICDFIFDDERLENIYLIDKKNLMRNKVQIIQQFEQAGSHANRYDVTILVNGLPLVQIELKKRGVAIREAFNQIHRYSKESFNSENSLFKYLQLFVISNGTDTRYFANTTKRDKNSFDFTMNWAKSDNTLIKDLKDFTATCFQKHTLLNVLVNYSVFDSSQTLLVMRPYQIAATERILWKIKSSFTAKNWSKPESGGYIWHTTGSGKTLTSFKAARLATELDFIDKVFFVVDRKDLDYQTMKEYQRFSPDSVNGSENTAGLKRNLDKDDNKIIVTTIQKLNNLMKAESDLPVYNQQVVFIFDECHRSQFGEAQKNLKKKFKRYYQFGFTGTPIFPENALGSETTASVFGRELHSYVITDAIRDEKVLKFKVDYNDVRPQFKSLETETDEKKLSAAENQQAFLHPMRIQEITQYILNNFRQKTHRTFPGSKGFNAMLAVSSVDAAKAYYATFKRLQEEAANKSATYKPLRIATIFSFAANEEQNAIGEISDETFDTSAMDSSAKEFLDAAIREYNSHFKTNFSTDSNGFQNYYRDLAQRVKNQDIDLLIVVGMFLTGFDAPTLNTLFVDKNLRYHGLMQAFSRTNRIYDATKTFGNIVTFRDLERSTIDAITLFGDKNTKNVVLEKSYTEYMEGFTDAATGEAKRGFMTVVSELEQRFPDPTSIESEKEKKDFVKLFGEYLRAENILQNYDEFATLKALQQIDLSDPVAVEKFKAEHYVDDEKFAELQTIRLPADRKIQDYRSAYNDIRDWQRREKEAEKKEKSTTDWDDVVFEVDLLKSQEINLDYILGLIFEHNRQNKGKGEMIEEVKRLIRSSLGNRAKEGLVVDFIQQTNLDDLPDKASIIDAFFTFAQREQQREAEALIKEENLNEDAAKRYIRTSLKREYATENGTELNETLPKLSPLNPQYKTKKQAVFQKIVSFIEKFKGVGGKI | soluble |
| MTIDMRLRPPLQSWKSTAQFKEGTAYYPTRYGFPRPKSVGTQDIGDLLAEMDEADITWGVVMGRQSAPPHGIVPNEEISDFVRQHADRFVGFAGIDLRDIDKAVADLDGYARSDEFKGISIEPGAGFVPLYSDDPSLFPLYERAQELQLPLSITLSGYLSSMAGHPTSYGNPSPVATVARKFPRLKIVVSHAAWPNVMPMLEVAFLHDNVYVSPDLYMNHVHTPGAHEYINAAKFYLADRLLFGTAYPSRPLKESVAGFRQWDLDSELAEKILHRNAARLLGLELEHHHHHH | not soluble |
| MTIDTDLDRTPAASSENPVEARRTQARAWFEGLRDRICAEIETLEREAPAELFPGEPATFTYKPWQRKTGAGGGVGGFLSNGRLFEKIGIHTSSANGKLTPEMAKNVPGDGSLDYVSTSISLIMHPRSPRVPTVHMNTRFLSTSQGWFGGGADLTPMLPEQRSQDAEDAVIFHTAMKHACDAHDPAYYDKFKPWADTYFFLPHRGVARGVGGIFFDYLNSGDFDRDFAFTRAVGSALLDVYPKIVRKRMIEPWTDAERAQQLACRGLYVEFNLLYDRGTMFGLQTGGNTETIMSSMPPLVSWSMAGDPLEHHHHHH | not soluble |
| MTIHLISFASILHKQASLRNSHEAILSELEKYYTVKLIDYQDMDKLGSDDFKIIFIATGGVERLVIQHFERLPRPAILLADGMQNSLAAALEISTWLRGRGMKSEILHGELPSIIQRVHILYNNFRAQRSLFGKRIGVIGTPSSWLVASNVDYLLAKRRWGIEYIDIPLERVYEHFKQITDDQVGASCAAVASQALACREGTPEDLIKAMRLYRAIKRICEEEKLEALTLSCFKLIDQIDTTGCLALSLLNDDGIMAGCEGDLQSIFTLLAVKALTGKEGFMANPSTINTRTNELILAHCTIGLKQTERYIIRNHFETEKGIAIQGLLPTGDVTIVKCGGECLDEYYLSTGTLTENTNYINMCRTQVRIRMNTPADYFLKNPLGNHHIMIHGNYEEALNEFLLSNACKRTE | not soluble |
| MTIHQHPHVTDRDAHFVGGGIASLAGAAFLVRDGNMPGENIHVYEKLDVVGGAMDGAGDPDEAYLIRGGRMFNYPAYECTWDLFETIPSLEDDSRSVKAVMDEFNETHPSYAKTRLMHEGERIDAGEYGLTRQHRQSIARLLLTPEPRLGDTRIEEWFDESFLETNFWYVWATIFAFQPWHSVAEVRRYMYRFLHEFPQLHTMEGIDRTKYNQYDSMILPLRRWLEDRGVSFEYGHEVTDMDIVPSRTGRTVERLYCETDSGTETVPVEPSDLVFVTNGSMTDGSSIGGMDEAPELNETGASWELWKSIAEDNPQFGNPSVFADNVTETKWESFTVTLHNTDLFDHIVDFTNEEPGNGLVTYLGSNWLLSTVVAAQPHFANQPDDVKVFWGYALFPDREGNYVEKPMSECTGREILQELCYHLQCEERLPEILDDVTCIPAMMPFITAHFQPREPGDRPDVVPDGSNNLAFLGQYAEQPRDVVFTVEYSVRSAMTAVYEMLDLDREVPPVSKHYRKPGVIADTVRAAYRLEHHHHHH | not soluble |
| MTINTEVFIRRNKLRRHFESEFRQINNEIREASKAAGVSSFHLKYSQALLDRAIQREIDETYVFELFHKIKDHVLEVNEFLSMPPRPDIDEDFIDGVEYRPGRLEITDGNLWLGFTVCKPNEKFKDPSLQCRMAIINSRRLPGKASKAVIKTQ | soluble |
| MTIQQAMHQMPGKPGRDAIAEGETPRKASSDEAGCPRNDSTPTGSGLLQAALTRDNLQLAFKQVRANKGAAGVDGLGIVETAEHLKTAWPGIRAQLLAGTYRPDPVRRVLIPKPGGGERKLGIPTVTDRLIQQALLQVLQPLLDPDFSNHSYGFRPERSAHQAVLAAQQYIHSGRQIVVDVDLEQFFDCVEHDVLIARLGRKVKDRDVLRLIRAYLNSGALIEGMVMTSTRGTPQGGPLSPLLANVVLDEVDKELERRGHCFVRYADDANVYVRSPKAGQRVMALLRRLYGRLGLRVNESKSAVASAFGRKFLGFSFWQSPKGEVKRRVALKALQVFKHRIRGLTPRSGGRSLPQVVENLRPYLLGWKAYFGLSQAPGLWKSLDGWIRRRLRAIQLKQWKTGKTTYRELRKLGANSDLAAAIASDSHRTWHNSAGLIHGVLTVAWFDRLGLPRLYLEHHHHHH | not soluble |
| MTIRSYKNLNLVRANIETESRQFIENKNYSIQSIGPMPGSRAGLRVVFTRPGVNLATVDIFYNGDGSTTIQYLTGANRSLGQELADHLFETINPAEFEQVNMVLQGFVETSVLPVLELSADESHIEFREHSRNAHTVVWKIISTSYQDELTVSLHITTGKLQIQGRPLSCYRVFTFNLAALLDLQGLEKVLIRQEDGKANIVQQEVARTYLQTVMADAYPHLHVTAEKLLVSGLCVKLAAPDLPDYCMLLYPELRTIEGVLKSKMSGLGMPVQQPAGFGTYFDKPAAHYILKPQFAATLRPEQINIISTAYTFFNVERHSLFHMETVVDASRMISDMARLMGKATRAWGIIKDLYIV | soluble |
